Experimental data: the Human Domainome abundance scans (Beltran et al. 2025)
± gives the uncertainty stated by the source.

B1: Retinoic acid receptor beta, residues 85 to 161; numbered along this chain, P10826 (parent)
chain: YKPCFVCQDKSSGYHYGVSACEGCKGFFRRSIQKNMIYTCHRDKNCVINKVTRNRCQYCRLQKCFEVGMSKESVRND

Variants of: B1
Test: abundance fitness (aPCA) (normalised: wild type 0, dead -1); higher = more abundant; growth selection in yeast, the domain comes from the species named
Settings: Homo sapiens

Abundance fitness of substitutions, site by site:
K10: I 0.154 ± 0.078 | Y 0.115 ± 0.069 | W -0.042 ± 0.056 | A 0.147 ± 0.05 | N 0.146 ± 0.085 | P -0.03 ± 0.095 | R 0.034 ± 0.04 | V 0.007 ± 0.042 | H 0.024 ± 0.11 | D 0.112 ± 0.082 | S 0.165 ± 0.05 | L 0.043 ± 0.045 | M 0.078 ± 0.06 | F 0.026 ± 0.086 | G -0.045 ± 0.041 | C 0.019 ± 0.086 | T 0.078 ± 0.054
G23: R -0.395 ± 0.049 | K -0.288 ± 0.07 | P 0.072 ± 0.061 | W -0.138 ± 0.045 | S 0.114 ± 0.043 | A 0.016 ± 0.042 | C 0.108 ± 0.056 | N -0.063 ± 0.11 | F -0.304 ± 0.092 | Q 0.057 ± 0.056 | H -0.114 ± 0.12 | I -0.282 ± 0.14 | E 0.231 ± 0.04 | D 0.228 ± 0.067 | V -0.149 ± 0.043 | T -0.008 ± 0.053 | M -0.227 ± 0.067 | Y -0.452 ± 0.11
V18: I 0.012 ± 0.097 | M -0.209 ± 0.18 | C -0.106 ± 0.08 | A 0.088 ± 0.044 | Y -0.29 ± 0.11 | F -0.108 ± 0.12 | G -0.22 ± 0.043 | T 0.103 ± 0.17 | S -0.165 ± 0.062 | Q -0.04 ± 0.065 | E -0.421 ± 0.075 | L -0.353 ± 0.059 | R -0.76 ± 0.1 | H -0.433 ± 0.26 | D -0.637 ± 0.21 | P -0.365 ± 0.11
D9: I -0.726 ± 0.24 | E -0.03 ± 0.046 | M -0.457 ± 0.095 | A -0.465 ± 0.083 | Q -0.6 ± 0.15 | G -0.588 ± 0.062 | K -0.722 ± 0.17 | V -0.753 ± 0.1 | S -0.71 ± 0.11 | W -0.529 ± 0.083 | N -0.828 ± 0.2 | Y -0.57 ± 0.14 | P -1 ± 0.43 | C -0.525 ± 0.14 | H -0.543 ± 0.18 | R -0.631 ± 0.075 | F -0.65 ± 0.21 | T -1.01 ± 0.24
S19: C -0.088 ± 0.075 | D -0.285 ± 0.098 | E 0.017 ± 0.051 | R -0.121 ± 0.041 | K -0.21 ± 0.078 | I 0.066 ± 0.071 | A 0.011 ± 0.044 | Y -0.048 ± 0.076 | T 0.02 ± 0.052 | F -0.09 ± 0.1 | W 0.024 ± 0.044 | Q 0.049 ± 0.062 | L -0.046 ± 0.05 | N -0.095 ± 0.092 | M -0.003 ± 0.056 | V 0.131 ± 0.04 | H -0.032 ± 0.092 | P -0.045 ± 0.077
F5: T -0.048 ± 0.058 | V -0.154 ± 0.045 | Y -0.043 ± 0.074 | W -0.316 ± 0.069 | S -0.053 ± 0.047
G17: Y 0.101 ± 0.21 | W -0.603 ± 0.11 | M -0.254 ± 0.071 | H -0.292 ± 0.13 | A -0.278 ± 0.054 | L -0.368 ± 0.058 | K -0.138 ± 0.061 | R -0.288 ± 0.05 | E -0.08 ± 0.057 | V -0.481 ± 0.064 | N -0.091 ± 0.1 | Q -0.311 ± 0.073 | S -0.219 ± 0.052 | P -0.164 ± 0.11 | T -0.242 ± 0.065 | C -0.24 ± 0.1 | D -0.246 ± 0.081
G13: V -0.192 ± 0.081 | D 0.082 ± 0.081 | K -0.292 ± 0.2 | Q -0.503 ± 0.2 | S -0.055 ± 0.059 | E -0.068 ± 0.12 | I -0.279 ± 0.12 | L -0.457 ± 0.093 | F -0.349 ± 0.14 | T -0.053 ± 0.068 | N -0.145 ± 0.12 | W -0.673 ± 0.39 | Y -0.206 ± 0.088 | M -0.067 ± 0.1 | A -0.325 ± 0.1 | H -0.265 ± 0.15 | R -0.289 ± 0.11 | C -0.334 ± 0.11
H15: I -0.348 ± 0.096 | L -0.097 ± 0.051 | E -0.129 ± 0.085 | M -0.006 ± 0.076 | N -0.015 ± 0.093 | V -0.091 ± 0.061 | F -0.111 ± 0.063 | G -0.25 ± 0.12 | C 0.016 ± 0.1 | K -0.276 ± 0.095 | D 0.03 ± 0.061 | A 0.033 ± 0.054 | T -0.046 ± 0.058 | Y 0.05 ± 0.073 | W -0.203 ± 0.2
A20: C 0.064 ± 0.064 | S -0.07 ± 0.052 | E -0.66 ± 0.1 | P -0.724 ± 0.2 | Y -0.594 ± 0.38 | I 0.055 ± 0.093 | G -0.614 ± 0.06 | F -0.077 ± 0.11 | R -0.785 ± 0.083 | W -0.672 ± 0.092 | T -0.065 ± 0.063 | K -1.08 ± 0.24 | N -0.491 ± 0.2 | Q -0.355 ± 0.082 | V -0.07 ± 0.042 | L -0.112 ± 0.049 | M -0.228 ± 0.068
S12: C 0.168 ± 0.058 | P -0.227 ± 0.11 | Y -0.364 ± 0.14 | M -0.102 ± 0.076 | E -0.041 ± 0.044 | D 0.16 ± 0.062 | A 0.057 ± 0.045 | F -0.205 ± 0.12
